Earlier results as cited in US20200069786A1, “COMPOSITION AND PROCESS FOR PREPARING VACCINE” (TREOS BIO ZRT., priority 2018, published 2020).
Like-named read-outs stand apart in the source and are kept apart here.

Tested on: TSA

B1: NLRP4 (protein, UniProt Q96MN2 1-994, looked up)
NACHT, LRR and PYD …: MAASFFSDFGLMWYLEELKKEEFRKFKEHLKQMTLQLELKQIPWTEVKKASREELANLLIKHYEEQQAWNITLRIFQKMDRKDLCMKVMRERTGYTKTYQAHAKQKFSRLWSSKSVTEIHLYFEEEVKQEECDHLDRLFAPKEAGKQPRTVIIQGPQGIGKTTLLMKLMMAWSDNKIFRDRFLYTFYFCCRELRELPPTSLADLISREWPDPAAPITEIVSQPERLLFVIDSFEELQGGLNEPDSDLCGDLMEKRPVQVLLSSLLRKKMLPEASLLIAIKPVCPKELRDQVTISEIYQPRGFNESDRLVYFCCFFKDPKRAMEAFNLVRESEQLFSICQIPLLCWILCTSLKQEMQKGKDLALTCQSTTSVYSSFVFNLFTPEGAEGPTPQTQHQLKALCSLAAEGMWTDTFEFCEDDLRRNGVVDADIPALLGTKILLKYGERESSYVFLHVCIQEFCAALFYLLKSHLDHPHPAVRCVQELLVANFEKARRAHWIFLGCFLTGLLNKKEQEKLDAFFGFQLSQEIKQQIHQCLKSLGERGNPQGQVDSLAIFYCLFEMQDPAFVKQAVNLLQEANFHIIDNVDLVVSAYCLKYCSSLRKLCFSVQNVFKKEDEHSSTSDYSLICWHHICSVLTTSGHLRELQVQDSTLSESTFVTWCNQLRHPSCRLQKLGINNVSFSGQSVLLFEVLFYQPDLKYLSFTLTKLSRDDIRSLCDALNYPAGNVKELALVNCHLSPIDCEVLAGLLTNNKKLTYLNVSCNQLDTGVPLLCEALCSPDTVLVYLMLAFCHLSEQCCEYISEMLLRNKSVRYLDLSANVLKDEGLKTLCEALKHPDCCLDSLCLVKCFITAAGCEDLASALISNQNLKILQIGCNEIGDVGVQLLCRALTHTDCRLEILGLEECGLTSTCCKDLASVLTCSKTLQQLNLTLNTLDHTGVVVLCEALRHPECALQVLGLRKTDFDEETQALLTAEEERNPNLTITDDCDTITRVEI
- TSA Expression Rate (ER) (LUNG): 38%

B2: THEG (protein, UniProt Q9P2T0 1-379, looked up)
Sperm microtubule associated …: MGDSRRRSLGNQPSSEAAGRSEREQDGDPRGLQSSVYESRRVTDPERQDLDNAELGPEDPEEELPPEEVAGEEFPETLDPKEALSELERVLDKDLEEDIPEISRLSISQKLPSTTMTKARKRRRRRRLMELAEPKINWQVLKDRKGRCGKGYAWISPCKMSLHFCLCWPSVYWTERFLEDTTLTITVPAVSRRVEELSRPKRFYLEYYNNNRTTPVWPIPRSSLEYRASSRLKELAAPKIRDNFWSMPMSEVSQVSRAAQMAVPSSRILQLSKPKAPATLLEEWDPVPKPKPHVSDHNRLLHLARPKAQSDKCVPDRDPRWEVLDVTKKVVASPRIISLAKPKVRKGLNEGYDRRPLASMSLPPPKASPEKCDQPRPGL
- TSA Expression Rate (ER) (LUNG): 31%

B3: LEMD1 (protein, UniProt Q68G75 1-181, looked up)
LEM domain-containing protein …: MVDVKCLSDCKLQNQLEKLGFSPGPILPSTRKLYEKKLVQLLVSPPCAPPVMNGPRELDGAQDSDDSEELNIILQGNIILSTEKSKKLKKWPEASTTKRKAVDTYCLDYKPSKGRRWAARAPSTRITYGTITKERDYCAEDQTIESWREEGFPVGLKLAVLGIFIIVVFVYLTVENKSLFG
- TSA Expression Rate (ER) (BREAST): 35%
- Expression Rate (ER) % (TSA expression rate in CRC): 94%
- Expression Rate (ER) % (TSA expression rate in PROSTATE cancer): 23%

B4: SPAG6 (protein, UniProt O75602 1-509, looked up)
Sperm-associated antigen 6: MSQRQVLQVFEQYQKARTQFVQMVAELATRPQNIETLQNAGVMSLLRTLLLDVVPTIQQTAALALGRLANYNDDLAEAVVKCDILPQLVYSLAEQNRFYKKAAAFVLRAVGKHSPQLAQAIVDCGALDTLVICLEDFDPGVKEAAAWALRYIARHNAELSQAVVDAGAVPLLVLCIQEPEIALKRIAASALSDIAKHSPELAQTVVDAGAVAHLAQMILNPDAKLKHQILSALSQVSKHSVDLAEMVVEAEIFPVVLTCLKDKDEYVKKNASTLIREIAKHTPELSQLVVNAGGVAAVIDCIGSCKGNTRLPGIMMLGYVAAHSENLAMAVIISKGVPQLSVCLSEEPEDHIKAAAAWALGQIGRHTPEHARAVAVTNTLPVLLSLYMSTESSEDLQVKSKKAIKNILQKCTYLPALEPFLYDAPPNILKHVVGQFSKVLPHDSKARRLFVTSGGLKKVQEIKAEPGSLLQEYINSINSCYPEEIVRYYSPGYSDTLLQRVDSYQPLNN
- TSA Expression Rate (ER) (BREAST): 21%
- TSA Expression Rate (ER) (LUNG): 29%

B5: COX6B2 (protein, UniProt Q6YFQ2 1-88, looked up)
Cytochrome c oxidase subunit …: MLDVEAQEPPKGKWSTPPFDPRFPSQNQIRNCYQNFLDYHRCLKTRTRRGKSTQPCEYYFRVYHSLCPISWVESWNEQIKNGIFAGKI
- TSA Expression Rate (ER) (LUNG): 24%
